Drawing on patent US20100248309A1, this text covers kon for four substances.

For this experiment, the target named is elastase. Nature of the experiment: Given as 'coupling constant'. Second-order association with elastase, 8 nM each, residual elastase activity on succinyl-Ala-Ala-Ala-pNA at 410 nm over 1-10 min (Beatty et al.).
Usually kon stands for the second-order rate constant of association. Higher therefore signals faster complex formation. “Human blood plasma AT (alpha-1-antitrypsin, A9204, Sigma) (from UniProt P01009 25-418)” displayed an association rate constant (kon) of 1.7e+06 M⁻¹ s⁻¹.

Turning to “Mutant recombinant AT F51L/M374I (human alpha-1-antitrypsin mutein, Korean Patent No. 133252) (from UniProt P01009 25-418)”, the association rate constant (kon) worked out at 1.7e+06 M⁻¹ s⁻¹.

As to “Mutant recombinant AT K168C/F189C (with disulfide bond) (human alpha-1-antitrypsin mutein) (from UniProt P01009 25-418)”, the kon stood at 1.8e+06 M⁻¹ s⁻¹.

The substance “wild type E. coli recombinant AT (human alpha-1-antitrypsin) (from UniProt P01009 26-418)” yielded an on-rate constant (kon) of 1.6e+06 M⁻¹ s⁻¹.
